One may read the IC50 as the midpoint of a concentration-inhibition curve. Read a low IC50 as greater potency.

This is an account of results in patent US20060277614A1 (INSTITUT NAT L DE LA SANTE ET DE LA RECH MED, published 2006).

Test [1] concerns the target T1, human prolactin receptor (human, UniProt P16471 25-622).
T1 sequence (looked up): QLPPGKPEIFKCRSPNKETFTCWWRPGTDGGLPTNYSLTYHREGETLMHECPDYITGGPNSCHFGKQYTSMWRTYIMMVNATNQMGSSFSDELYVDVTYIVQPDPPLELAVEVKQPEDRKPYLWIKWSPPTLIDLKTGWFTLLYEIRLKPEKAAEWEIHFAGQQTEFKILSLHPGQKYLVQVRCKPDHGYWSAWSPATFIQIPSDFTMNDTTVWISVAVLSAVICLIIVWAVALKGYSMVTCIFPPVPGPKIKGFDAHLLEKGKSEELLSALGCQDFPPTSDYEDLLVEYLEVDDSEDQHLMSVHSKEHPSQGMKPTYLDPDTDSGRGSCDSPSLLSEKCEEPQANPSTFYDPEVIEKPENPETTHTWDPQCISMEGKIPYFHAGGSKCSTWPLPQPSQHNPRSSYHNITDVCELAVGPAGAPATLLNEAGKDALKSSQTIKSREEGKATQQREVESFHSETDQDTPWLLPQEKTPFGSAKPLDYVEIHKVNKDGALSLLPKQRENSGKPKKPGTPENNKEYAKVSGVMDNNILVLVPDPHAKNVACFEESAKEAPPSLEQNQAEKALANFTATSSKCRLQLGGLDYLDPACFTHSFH
As to the kind of experiment: cell-based or functional assay.

In test [2] the target is T1, human prolactin receptor. Nature of the test: competition with [125I]-hPRL on HL5 cell homogenates (human PRLR). The procedure: (§1) The affinity of the various hPRL analogs for the human PRLR was estimated by their ability to compete [¹²⁵I]-hPRL for binding to this receptor. Binding affinities were determined using cell homogenates of HL5 cells (expressing the human PRLR), following the procedure previously described (KINET et al., J. Biol. Chem., 274, 26033-26043, 1999).
(§2) Briefly, hPRL was iodinated using IODOGEN, and its specific activity was in the range of 40-50 μCi/μg. Binding assays were performed overnight at room temperature using 150-300 μg cell homogenate protein in the presence of 30,000 cpm [¹²⁵I]-hPRL and increasing concentrations of unlabeled competitor (WT or mutated hPRL).
(§3) The relative binding affinity of hPRL analogs was calculated as the ratio of their IC₅₀ with respect to that of WT hPRL calculated from competition curves (regression in the linear part of sigmoids). Results presented in FIG. 2A are representative of at least three independent experiments performed in duplicate.

In test [3] the target is T1, human prolactin receptor. As to the kind of experiment: competition with [125I]-hPRL on HL5 cell homogenates (human PRLR); mean of three experiments. The procedure:
as §1, §2, §3

Test [4] addresses human prolactin receptor (human) (UniProt P16471). Nature of the test: cell-based or functional assay.
Test [5] has the same target. As to the kind of experiment: competition with [125I]-hPRL on HL5 cell homogenates (human PRLR); ratio of IC50 to that of WT hPRL.
For test [6], the target named is T1, human prolactin receptor. As to the kind of experiment: competition of unlabeled WT hPRL with [125I]-hPRL on HL5 cell homogenates (human PRLR); mean of three experiments. The procedure:
as §1, §2, §3

In the test with human prolactin receptor [1], “Δ1-9-G129R-hPRL (from UniProt P01236 10-199) (ligand)” showed a Ba/F3-hPRLR cell proliferation, antagonism of 10 ng/ml WT hPRL, molar excess needed of 10 to 50 fold. The molecule also gave a fold lower affinity compared to WT hPRL with human prolactin receptor [2] of 10 fold. In addition, the IC50 with human prolactin receptor [3] was found to be 0.166 µg/mL.
In test [4], “Δ1-9-hPRL (from UniProt P01236 10-199) (ligand)” yielded an LHRE-luciferase reporter in HL5 cells, EC50 against WT hPRL of 2 fold and an LHRE-luciferase reporter in HL5 cells, maximal response against WT hPRL of 120 to 140%. Moreover, the increase in affinity compared to WT hPRL in test [5] is 20%.
Turning to “Δ1-10-hPRL (from UniProt P01236 11-199) (ligand)”, in test [4], the LHRE-luciferase reporter in HL5 cells, EC50 against WT hPRL was 2 fold and the LHRE-luciferase reporter in HL5 cells, maximal response against WT hPRL lay within 120 to 140%.

B1: Δ1-12-hPRL (ligand, human)
chain: MVTLRDLFDRAVVLSHYIHNLSSEMFSEFDKRYTHGRGFITKAINSCHTSSLATPEDKEQAQQMNQKDFLSLIVSILRSWNEPLYHLVTEVRGMQEAPEAILSKAVEIEEQTKRLLEGMELIVSQVHPETKENEIYPVWSGLPSLQMADEESRLSAYYNLLHCLRRDSHKIDNYLKLLKCRIIHNNNC
For B1, the “LHRE-luciferase reporter in HL5 cells, EC50 against WT hPRL” value with human prolactin receptor [1] was ~2 fold.

B2: Δ1-13-hPRL (ligand, human)
chain: MTLRDLFDRAVVLSHYIHNLSSEMFSEFDKRYTHGRGFITKAINSCHTSSLATPEDKEQAQQMNQKDFLSLIVSILRSWNEPLYHLVTEVRGMQEAPEAILSKAVEIEEQTKRLLEGMELIVSQVHPETKENEIYPVWSGLPSLQMADEESRLSAYYNLLHCLRRDSHKIDNYLKLLKCRIIHNNNC
As to B2, the “LHRE-luciferase reporter in HL5 cells, EC50 against WT hPRL” value with human prolactin receptor [1] is ~2 fold.

B3: Δ1-14-hPRL (ligand, human)
chain: MLRDLFDRAVVLSHYIHNLSSEMFSEFDKRYTHGRGFITKAINSCHTSSLATPEDKEQAQQMNQKDFLSLIVSILRSWNEPLYHLVTEVRGMQEAPEAILSKAVEIEEQTKRLLEGMELIVSQVHPETKENEIYPVWSGLPSLQMADEESRLSAYYNLLHCLRRDSHKIDNYLKLLKCRIIHNNNC
As to B3, in the test with human prolactin receptor [1], the “LHRE-luciferase reporter in HL5 cells, EC50 against WT hPRL” value is ~3 fold.

B4: Δ1-14-G129R-hPRL (ligand, human)
chain: MLRDLFDRAVVLSHYIHNLSSEMFSEFDKRYTHGRGFITKAINSCHTSSLATPEDKEQAQQMNQKDFLSLIVSILRSWNEPLYHLVTEVRGMQEAPEAILSKAVEIEEQTKRLLERMELIVSQVHPETKENEIYPVWSGLPSLQMADEESRLSAYYNLLHCLRRDSHKIDNYLKLLKCRIIHNNNC
notes: range 15-199; Mature-hormone numbering; also called Δ1-14-G129R-PRL; double mutant Δ1-14-G129R-hPRL
On to B4, for which the “fold lower affinity compared to WT hPRL” value in the test with human prolactin receptor [2] was ~10 fold. In addition, the IC50 with human prolactin receptor [3] came out at 0.187 µg/mL.

B5: wild-type human prolactin (ligand, UniProt P01236 29-227, looked up)
chain: LPICPGGAARCQVTLRDLFDRAVVLSHYIHNLSSEMFSEFDKRYTHGRGFITKAINSCHTSSLATPEDKEQAQQMNQKDFLSLIVSILRSWNEPLYHLVTEVRGMQEAPEAILSKAVEIEEQTKRLLEGMELIVSQVHPETKENEIYPVWSGLPSLQMADEESRLSAYYNLLHCLRRDSHKIDNYLKLLKCRIIHNNNC
notes: mature; Monomeric fraction used; Residue numbers (Cys4, Cys11, Gly129) count on the mature hormone; also called WT hPRL; hPRL
B5: the IC50 in the test with human prolactin receptor [6] turned out to be 0.018 µg/mL.

B6: G129R-hPRL (ligand, human, UniProt P01236 29-227, looked up)
chain: LPICPGGAARCQVTLRDLFDRAVVLSHYIHNLSSEMFSEFDKRYTHGRGFITKAINSCHTSSLATPEDKEQAQQMNQKDFLSLIVSILRSWNEPLYHLVTEVRGMQEAPEAILSKAVEIEEQTKRLLERMELIVSQVHPETKENEIYPVWSGLPSLQMADEESRLSAYYNLLHCLRRDSHKIDNYLKLLKCRIIHNNNC
notes: mature; also called single mutant G129R-hPRL
As for B6, the “fold lower affinity compared to WT hPRL” value in the test with human prolactin receptor [2] is ~10 fold.

B7: Δ1-11-hPRL (ligand, human)
chain: MQVTLRDLFDRAVVLSHYIHNLSSEMFSEFDKRYTHGRGFITKAINSCHTSSLATPEDKEQAQQMNQKDFLSLIVSILRSWNEPLYHLVTEVRGMQEAPEAILSKAVEIEEQTKRLLEGMELIVSQVHPETKENEIYPVWSGLPSLQMADEESRLSAYYNLLHCLRRDSHKIDNYLKLLKCRIIHNNNC
For the molecule B7, in the test with human prolactin receptor [1], the “LHRE-luciferase reporter in HL5 cells, EC50 against WT hPRL” value was ~2 fold.
